The results in this text go back to US20190134153A1, “IMMUNOMODULATORY EFFECT OF INHALED KINASE INHIBITOR PEPTIDES IN LUNG” (MOERAE MATRIX, INC., priority 2017, published 2019).

Among the targets are CK2(h) (Homo sapiens, UniProt P68400); JNK2α2(h) (Homo sapiens, UniProt P45984); Met(Y1248C)(h) (Homo sapiens, UniProt P08581, Y1230C); TrkA(h) (Homo sapiens, UniProt P04629); CDK7/cyclinH/MAT1(h) (Homo sapiens, UniProt P50613); mTOR(h) (Homo sapiens, UniProt P42345); Fgr(h) (Homo sapiens, UniProt P09769).
Common to all, as to test: Kinase Profiling Assay
What all share (type): biochemical
Common to all, as to settings: 100 μM

The target of another test is T1, PDK1(h) (Homo sapiens, UniProt O15530).
T1 sequence (O15530 1-556): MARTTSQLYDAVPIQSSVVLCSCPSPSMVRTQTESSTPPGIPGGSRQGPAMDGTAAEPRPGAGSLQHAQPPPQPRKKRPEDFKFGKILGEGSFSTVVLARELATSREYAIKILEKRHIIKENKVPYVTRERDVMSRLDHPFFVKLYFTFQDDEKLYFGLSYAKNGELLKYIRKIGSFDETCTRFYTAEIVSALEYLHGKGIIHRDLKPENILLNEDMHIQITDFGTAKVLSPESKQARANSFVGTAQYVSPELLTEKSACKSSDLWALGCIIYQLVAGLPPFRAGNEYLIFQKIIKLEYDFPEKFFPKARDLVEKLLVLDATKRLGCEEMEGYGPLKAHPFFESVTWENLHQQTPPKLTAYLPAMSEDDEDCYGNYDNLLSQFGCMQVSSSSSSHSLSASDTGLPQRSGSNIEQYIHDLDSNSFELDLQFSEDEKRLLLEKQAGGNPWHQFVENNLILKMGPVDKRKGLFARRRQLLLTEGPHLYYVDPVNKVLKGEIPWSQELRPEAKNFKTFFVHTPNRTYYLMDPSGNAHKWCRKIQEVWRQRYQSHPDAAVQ

In another test the target is T2, TAO3(h) (Homo sapiens, UniProt Q9H2K8).
T2 sequence (Q9H2K8 1-898): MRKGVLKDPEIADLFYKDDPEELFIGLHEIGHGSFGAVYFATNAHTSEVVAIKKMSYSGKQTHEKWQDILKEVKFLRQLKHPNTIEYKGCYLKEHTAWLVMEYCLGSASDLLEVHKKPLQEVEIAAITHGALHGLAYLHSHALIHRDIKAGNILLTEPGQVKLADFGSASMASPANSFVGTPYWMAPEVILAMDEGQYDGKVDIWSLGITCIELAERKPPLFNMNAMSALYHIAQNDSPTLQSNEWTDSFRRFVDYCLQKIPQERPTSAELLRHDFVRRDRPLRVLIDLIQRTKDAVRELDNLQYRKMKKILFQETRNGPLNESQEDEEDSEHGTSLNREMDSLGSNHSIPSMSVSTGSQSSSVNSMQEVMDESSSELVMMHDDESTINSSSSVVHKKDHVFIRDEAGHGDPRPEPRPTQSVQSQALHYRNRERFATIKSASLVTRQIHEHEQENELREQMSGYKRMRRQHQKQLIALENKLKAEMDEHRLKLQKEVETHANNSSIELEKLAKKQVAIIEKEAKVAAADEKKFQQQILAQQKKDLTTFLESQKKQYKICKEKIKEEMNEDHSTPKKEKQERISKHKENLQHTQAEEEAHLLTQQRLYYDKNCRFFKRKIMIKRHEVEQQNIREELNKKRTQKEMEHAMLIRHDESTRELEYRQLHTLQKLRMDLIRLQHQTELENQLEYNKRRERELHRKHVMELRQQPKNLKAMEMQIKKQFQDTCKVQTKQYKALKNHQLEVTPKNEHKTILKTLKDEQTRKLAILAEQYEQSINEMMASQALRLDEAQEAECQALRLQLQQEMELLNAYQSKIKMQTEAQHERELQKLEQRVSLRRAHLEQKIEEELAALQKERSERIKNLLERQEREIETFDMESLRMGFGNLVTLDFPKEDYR

A further test concerns the target T3, ALK4(h) (Homo sapiens, UniProt P36896).
T3 sequence (P36896 24-505): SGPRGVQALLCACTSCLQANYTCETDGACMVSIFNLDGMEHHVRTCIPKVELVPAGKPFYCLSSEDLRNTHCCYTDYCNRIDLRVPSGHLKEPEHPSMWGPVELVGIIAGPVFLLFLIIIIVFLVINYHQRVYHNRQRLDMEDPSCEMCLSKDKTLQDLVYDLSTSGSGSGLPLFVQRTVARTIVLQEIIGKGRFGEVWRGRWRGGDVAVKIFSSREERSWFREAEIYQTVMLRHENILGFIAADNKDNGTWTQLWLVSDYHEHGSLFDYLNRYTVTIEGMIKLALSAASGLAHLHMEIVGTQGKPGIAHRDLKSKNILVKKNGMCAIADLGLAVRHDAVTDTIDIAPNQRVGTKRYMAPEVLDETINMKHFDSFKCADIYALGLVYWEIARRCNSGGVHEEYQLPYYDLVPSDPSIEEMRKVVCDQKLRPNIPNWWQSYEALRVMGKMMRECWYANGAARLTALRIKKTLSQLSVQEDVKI

Sequence of TrkA(h) (P04629 33-796): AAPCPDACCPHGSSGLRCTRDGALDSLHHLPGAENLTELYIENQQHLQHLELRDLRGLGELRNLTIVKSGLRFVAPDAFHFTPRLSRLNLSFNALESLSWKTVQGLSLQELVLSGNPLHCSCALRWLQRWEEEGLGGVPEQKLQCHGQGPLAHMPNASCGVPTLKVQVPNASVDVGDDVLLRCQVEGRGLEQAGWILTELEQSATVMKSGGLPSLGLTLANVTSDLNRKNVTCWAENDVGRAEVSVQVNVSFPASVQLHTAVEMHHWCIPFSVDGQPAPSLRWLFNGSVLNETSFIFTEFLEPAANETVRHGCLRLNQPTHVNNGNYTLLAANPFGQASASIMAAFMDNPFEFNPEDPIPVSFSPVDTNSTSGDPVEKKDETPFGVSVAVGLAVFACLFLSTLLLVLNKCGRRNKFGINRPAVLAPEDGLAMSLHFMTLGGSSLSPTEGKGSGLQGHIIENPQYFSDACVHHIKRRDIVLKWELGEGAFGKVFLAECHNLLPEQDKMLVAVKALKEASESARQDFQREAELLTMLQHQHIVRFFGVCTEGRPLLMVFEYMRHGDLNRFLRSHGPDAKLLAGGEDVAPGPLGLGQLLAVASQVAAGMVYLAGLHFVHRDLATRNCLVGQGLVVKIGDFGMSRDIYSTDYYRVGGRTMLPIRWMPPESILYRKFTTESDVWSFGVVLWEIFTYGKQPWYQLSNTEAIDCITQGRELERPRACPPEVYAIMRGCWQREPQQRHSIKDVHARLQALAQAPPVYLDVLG
Sequence of CK2(h) (P68400 whole entry): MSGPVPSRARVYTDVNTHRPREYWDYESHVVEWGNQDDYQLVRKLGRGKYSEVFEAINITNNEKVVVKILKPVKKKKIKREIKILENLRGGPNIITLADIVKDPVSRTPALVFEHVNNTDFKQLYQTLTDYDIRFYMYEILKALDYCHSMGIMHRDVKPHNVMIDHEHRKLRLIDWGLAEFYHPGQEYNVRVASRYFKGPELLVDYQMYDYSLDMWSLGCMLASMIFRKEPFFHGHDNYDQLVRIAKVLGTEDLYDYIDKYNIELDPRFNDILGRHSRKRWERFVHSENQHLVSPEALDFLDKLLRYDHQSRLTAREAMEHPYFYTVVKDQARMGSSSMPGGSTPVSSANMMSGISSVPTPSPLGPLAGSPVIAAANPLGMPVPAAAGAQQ
Sequence of CK2(h) (P67870 whole entry partner): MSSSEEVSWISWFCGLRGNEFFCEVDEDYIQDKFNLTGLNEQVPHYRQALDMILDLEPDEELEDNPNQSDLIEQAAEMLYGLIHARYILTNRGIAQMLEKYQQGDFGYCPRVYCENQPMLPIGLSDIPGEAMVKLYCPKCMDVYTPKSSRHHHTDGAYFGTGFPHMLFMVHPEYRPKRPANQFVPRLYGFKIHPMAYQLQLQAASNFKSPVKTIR
Sequence of CDK7/cyclinH/MAT1(h) (P50613 whole entry): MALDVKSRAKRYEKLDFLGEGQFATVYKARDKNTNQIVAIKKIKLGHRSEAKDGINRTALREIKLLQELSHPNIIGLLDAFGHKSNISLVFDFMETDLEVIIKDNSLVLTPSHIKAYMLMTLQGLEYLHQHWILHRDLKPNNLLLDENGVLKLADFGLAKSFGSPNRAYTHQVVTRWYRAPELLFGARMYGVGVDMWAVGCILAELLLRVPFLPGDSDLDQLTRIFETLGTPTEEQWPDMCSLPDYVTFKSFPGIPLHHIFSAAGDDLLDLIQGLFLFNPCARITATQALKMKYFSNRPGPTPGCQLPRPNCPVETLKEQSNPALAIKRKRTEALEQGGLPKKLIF
Sequence of CDK7/cyclinH/MAT1(h) (P51946 whole entry partner): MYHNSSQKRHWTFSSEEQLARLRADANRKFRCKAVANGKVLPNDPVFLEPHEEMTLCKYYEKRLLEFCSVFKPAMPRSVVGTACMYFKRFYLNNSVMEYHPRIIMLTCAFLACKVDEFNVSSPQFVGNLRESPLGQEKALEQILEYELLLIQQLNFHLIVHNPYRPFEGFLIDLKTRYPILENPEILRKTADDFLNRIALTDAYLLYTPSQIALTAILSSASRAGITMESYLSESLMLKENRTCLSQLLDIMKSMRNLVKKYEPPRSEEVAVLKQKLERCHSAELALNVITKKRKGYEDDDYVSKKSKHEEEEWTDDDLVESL
Sequence of CDK7/cyclinH/MAT1(h) (P51948 whole entry partner): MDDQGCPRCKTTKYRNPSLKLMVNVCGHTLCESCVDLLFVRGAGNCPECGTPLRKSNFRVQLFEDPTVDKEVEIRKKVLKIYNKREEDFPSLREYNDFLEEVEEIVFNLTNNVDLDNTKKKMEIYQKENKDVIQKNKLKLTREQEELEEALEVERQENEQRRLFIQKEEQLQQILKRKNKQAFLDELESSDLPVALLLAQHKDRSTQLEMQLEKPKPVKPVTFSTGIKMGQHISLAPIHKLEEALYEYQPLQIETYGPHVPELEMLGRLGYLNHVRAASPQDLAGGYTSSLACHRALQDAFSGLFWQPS

As to HRRIKAWLKKIKALARQLGVAA [MMI-0500], the “% activity” value with CK2(h) was 93%; with PDK1(h) it was 178%; with JNK2α2(h) it was 81%; with Met(Y1248C)(h), 73%; with TrkA(h), 24%; in the test with CDK7/cyclinH/MAT1(h), 15%. Also, the “% activity” value in the test with mTOR(h) amounted to 135%; with TAO3(h) it was 12%; in the test with ALK4(h) it was 81%.

With YARAAARQARAKALNRQLGVA [MMI-0200], the “% activity” value in the test with CK2(h) stood at 83%; in the test with Fgr(h) it was 71%; with PDK1(h), 143%; with Met(Y1248C)(h) it was 141%; with CDK7/cyclinH/MAT1(h) it was 67%; with mTOR(h), 110%. The “% activity” value with ALK4(h) was found to be 152%.

In the case of KAFAKLAARLYRKALARQLGVAA [MMI-0400], the “% activity” value with CK2(h) was 101%; with Fgr(h) it was 47%; in the test with PDK1(h), 159%; with JNK2α2(h), 96%; in the test with Met(Y1248C)(h) it was 36%; in the test with TrkA(h), 17%. The “% activity” value in the test with CDK7/cyclinH/MAT1(h) turned out to be 47%; with mTOR(h), 93%; with TAO3(h) it was 67%; with ALK4(h), 130%.

For FAKLAARLYRKALARQLGVAA [MMI-0300], the “% activity” value with CK2(h) is listed as 90%; with Fgr(h), 60%; with PDK1(h), 135%; in the test with JNK2α2(h) it was 98%; in the test with Met(Y1248C)(h) it was 84%; with TrkA(h) it was 25%. The “% activity” value in the test with CDK7/cyclinH/MAT1(h) is on record as 65%; with mTOR(h) it was 91%; in the test with TAO3(h), 77%; with ALK4(h) it was 140%.
